Some targets named below: mouse α-synuclein (mouse, UniProt O55042 1-140); β-synuclein (UniProt Q16143 1-134); γ-synuclein (UniProt O76070 1-127).
Holding throughout (assay): filter retardation assay

Chain of β-synuclein (Q16143 whole entry): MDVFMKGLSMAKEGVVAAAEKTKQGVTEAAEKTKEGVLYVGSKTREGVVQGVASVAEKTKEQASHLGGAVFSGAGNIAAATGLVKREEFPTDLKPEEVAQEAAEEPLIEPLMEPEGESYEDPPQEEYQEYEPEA
Chain of γ-synuclein (O76070 whole entry): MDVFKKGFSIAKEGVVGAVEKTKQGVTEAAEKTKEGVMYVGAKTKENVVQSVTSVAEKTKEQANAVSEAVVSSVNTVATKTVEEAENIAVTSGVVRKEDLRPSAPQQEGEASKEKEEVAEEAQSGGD
Experimental for mouse α-synuclein: (§1) Filter retardation assay was performed using a Minifold 48 slots (GE Healthcare Life Sciences). Each protein (50 μl) at a final concentration of 1 μg/ml was loaded into each slot on a nitrocellulose membrane that has been pre-soaked in PBS. Samples were allowed to absorb onto the nitrocellulose membrane and then slots were washed with 1 ml of PBS. Membranes were then probed with relevant antibodies, and developed with SuperSignal West Pico Chemiluminescent Substrate Kit.
Experimental for β-synuclein: as §1
Experimental for γ-synuclein: as §1

B1: monoclonal antibody 4B1 produced by hybridoma 4B1 (ATCC Patent Deposit Number PTA-127017) (antibody, mouse IgG1, kappa, V domains shown)
VH: EVKLVESGGGLVQPGGSLKLSCAASGITFSSYTMSWVRQTPEKRLEWVGYISNGGGRTYYPDTVKGRFTISRDNAKNTLYLQMSSLKSEDTAMYYCARQITTAMGYYYAMDYWGQGTSVTVSS
VL: DVVMTQTPLSLPVSLGDQASISCRSSQSLVHSNGNTYLHWYLQKPGQSPKLLISKVSNRFSGVPDRFSGSGSGTDFTLKISRVEAEDLGVYFCSQSTHVPLTFGAGTKLELKR
notes: also called mAb 4B1; 4E1
Consider B1, for which the binding result with mouse α-synuclein is reported as “binds”; with β-synuclein it was “no binding”; in the assay with γ-synuclein it was “no binding”.

The values are drawn from patent US20260209322A1 (HAMAD BIN KHALIFA UNIVERSITY, published 2026).
